Data taken from article PMC10155811 (2022).

How the values were obtained:
BubR1 = assay: ITC; unphosphorylated peptide …
BubR1-p = assay: ITC; doubly phosphorylated peptide KLpSPIIEDpSR
[1] = biological target: Bub1 peptides encompassing the putative PP2A-B56 binding motif (amino acids 654-FSPIQE-659) (human, UniProt O43683); assay: ITC; doubly phosphorylated Bub1 peptide KFpSPIQEKpSP

Kd (BubR1): 4.6 µM | Kd (BubR1-p): 0.12 µM | Kd [1]: 41 µM
B1: B56α (natural protein)
chain: not shown
